Test [1] deals with CsaC-H228A (Neisseria meningitidis serogroup A). The test is described as follows: crystal structure; sitting drop, PEG200, HEPES pH 7.0/7.6; two protein molecules in the asymmetric unit, tetrameric assembly in the crystal packing; apo, CPS-DP4-soaked (wild type) and acetyl-CoA-soaked (H228A) crystals.
Test [2] concerns the target capsule O-acetyltransferase CsaC, wild type (Neisseria meningitidis serogroup A). Nature of the test: AUC; sedimentation velocity (3.0 to 40.9 µM CsaC, 35,000 rpm) and sedimentation equilibrium (9.1 and 40.9 µM CsaC, single species model), 20 °C, 50 mM HEPES pH 7.0, 0.1 M NaCl, 5 mM MgCl2, 1 mM EDTA.
The target is the same in test [3]. Nature of the test: crystal structure; sitting drop, PEG200, HEPES pH 7.0/7.6; two protein molecules in the asymmetric unit, tetrameric assembly in the crystal packing; apo, CPS-DP4-soaked (wild type) and acetyl-CoA-soaked (H228A) crystals.

Experimental findings from publication PMC7501274 are described below.

Usually stoichiometry N stands for a count of units in the complex or per binding partner.

Substance CsaC-H228A (enzyme) yielded a stoichiometry N in test [1] of 4.
With “capsule O-acetyltransferase CsaC, wild type (enzyme)”, the stoichiometry N in test [2] and in test [3] was 4 in each case.
